Molecular target: GltTk_P208R (UniProt Q5JID0)
Assay: cryo-EM structure; single-particle cryo-EM of GltTk_P208R in MSP2N2 nanodiscs (E. coli lipids), 20 mM Tris-HCl pH 8.0, 100 mM KCl, with 300 mM NaCl and 100 uM L-Asp added; C3 symmetry imposed

## GltTk_P208R (from UniProt Q5JID0 1-430) (natural protein)
  stoichiometry N: 3
